Source: patent US20050277575

Target: T1, Glu-plasminogen (Calbiochem), P00747
T1 chain: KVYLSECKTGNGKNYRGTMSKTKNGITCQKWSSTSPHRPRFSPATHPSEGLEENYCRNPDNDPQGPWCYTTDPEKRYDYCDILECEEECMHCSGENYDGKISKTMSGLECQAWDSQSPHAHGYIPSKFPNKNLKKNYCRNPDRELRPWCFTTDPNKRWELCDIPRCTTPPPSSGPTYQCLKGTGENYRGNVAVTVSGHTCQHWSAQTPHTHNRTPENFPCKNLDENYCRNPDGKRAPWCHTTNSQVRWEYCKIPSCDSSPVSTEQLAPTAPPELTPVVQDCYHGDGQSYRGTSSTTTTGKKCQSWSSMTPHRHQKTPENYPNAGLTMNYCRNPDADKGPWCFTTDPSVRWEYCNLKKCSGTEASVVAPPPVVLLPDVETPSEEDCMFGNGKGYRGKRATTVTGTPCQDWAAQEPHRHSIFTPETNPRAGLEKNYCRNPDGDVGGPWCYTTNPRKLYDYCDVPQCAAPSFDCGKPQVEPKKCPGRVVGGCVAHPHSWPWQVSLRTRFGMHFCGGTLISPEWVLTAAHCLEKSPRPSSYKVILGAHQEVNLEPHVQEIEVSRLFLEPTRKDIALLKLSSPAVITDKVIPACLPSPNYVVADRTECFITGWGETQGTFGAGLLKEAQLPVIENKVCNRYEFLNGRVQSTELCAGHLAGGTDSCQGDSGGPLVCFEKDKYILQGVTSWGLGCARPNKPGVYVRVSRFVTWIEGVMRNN

B1: tissue type plasminogen activator (t-PA, Calbiochem) (protein)
chain: SYQVICRDEKTQMIYQQHQSWLRPVLRSNRVEYCWCNSGRAQCHSVPVKSCSEPRCFNGGTCQQALYFSDFVCQCPEGFAGKCCEIDTRATCYEDQGISYRGTWSTAESGAECTNWNSSALAQKPYSGRRPDAIRLGLGNHNYCRNPDRDSKPWCYVFKAGKYSSEFCSTPACSEGNSDCYFGNGSAYRGTHSLTESGASCLPWNSMILIGKVYTAQNPSAQALGLGKHNYCRNPDGDAKPWCHVLKNRRLTWEYCDVPSCSTCGLRQYSQPQFRIKGGLFADIASHPWQAAIFAKHRRSPGERFLCGGILISSCWILSAAHCFQERFPPHHLTVILGRTYRVVPGEEEQKFEVEKYIVHKEFDDDTYDNDIALLQLKSDSSRCAQESSVVRTVCLPPADLQLPDWTECELSGYGKHEALSPFYSERLKEAHVRLYPSSRCTSQHLLNRTVTDNMLCAGDTRSGGPQANLHDACQGDSGGPLVCLNDGRMTLVGIISWGLGCGQKDVPGVYTKVTNYLDWIRDNMRP
- Km of t-PA-mediated plasminogen conversion in the presence of S100A4 (EGTA): 0.059 µM
- Km of t-PA-mediated plasminogen conversion, basal reaction (EGTA): 0.429 µM
